According to article PMC4337483 (Journal of immunology (Baltimore, Md. : 1950), 2015):

Legend:
[1] = target: BTN3A1 B30.2 domain (BTN3A1 residues 310-513) (Homo sapiens, UniProt O00481); assay: isothermal titration calorimetry; assay type: binding
[2] = target: BTN3A1 residues 310-513 (purified, His tag) (human) (UniProt O00481); assay: ITC
[3] = target: 3A1v2 cytoplasmic tail (protein used in ITC) (human); assay: ITC

Molecule | Kd [1] | Kd [2] | stoichiometry N [2] | Kd [3]
C=C(C)CCO[P@@](=O)(O)OP(=O)(O)O [IPP] | 672000 nM | – | – | –
periplakin residues 133-530 (PPL BamH1, purified, His tag) (domain or fragment) DPQVNWAALVEEKLDKLNNQSFGTDLPLVDHQVEEHNIFHNEVKAIGPHLAKDGDKEQNSELRAKYQKLLAASQARQQHLSSLQDYMQRCTNELYWLDQQAKGRMQYDWSDRNLDYPSRRRQYENFINRNLEAKEERINKLHSEGDQLLAAEHPGRNSIEAHMEAVHADWKEYLNLLICEESHLKYMEDYHQFHEDVKDAQELLRKVDSDLNQKYGPDFKDRYQIELLLRELDDQEKVLDKYEDVVQGLQKRGQQVVPLKYRRETPLKPIPVEALCDFEGEQGLISRGYSYTLQKNNGESWELMDSAGNKLIAPAVCFVIPPTDPEALALADSLGSQYRSVRQKAAGSKRTLQQRYEVLKTENPGDASDLQGRQLLAGLDKVASDLDRQEKAITGILR | – | 2100 nM | 1 | 580 nM
